{"source": "paper doi:10.1101/2025.09.02.673761", "about": "(bioRxiv, 2025)", "binders": {"B1": {"name": "KIF20A (kinesin-6 motor), unlabeled (natural protein)", "chain": "MSQGILSPPAGLLSDDDVVVSPMFESTAADLGSVVRKNLLSDCSVVSTSLEDKQQVPSEDSMEKVKVYLRVRPLLPSELERQEDQGCVRIENVETLVLQAPKDSFALKSNERGIGQATHRFTFSQIFGPEVGQASFFNLTVKEMVKDVLKGQNWLIYTYGVTNSGKTHTIQGTIKDGGILPRSLALIFNSLQGQLHPTPDLKPLLSNEVIWLDSKQIRQEEMKKLSLLNGGLQEEELSTSLKRSVYIESRIGTSTSFDSGIAGLSSISQCTSSSQLDETSHRWAQPDTAPLPVPANIRFSIWISFFEIYNELLYDLLEPPSQQRKRQTLRLCEDQNGNPYVKDLNWIHVQDAEEAWKLLKVGRKNQSFASTHLNQNSSRSHSIFSIRILHLQGEGDIVPKISELSLCDLAGSERCKDQKSGERLKEAGNINTSLHTLGRCIAALRQNQQNRSKQNLVPFRDSKLTRVFQGFFTGRGRSCMIVNVNPCASTYDETLHVAKFSAIASQLVHAPPMQLGFPSLHSFIKEHSLQVSPSLEKGAKADTGLDDDIENEADISMYGKEELLQVVEAMKTLLLKERQEKLQLEMHLRDEICNEMVEQMQQREQWCSEHLDTQKELLEEMYEEKLNILKESLTSFYQEEIQERDEKIEELEALLQEARQQSVAHQQSGSELALRRSQRLAASASTQQLQEVKAKLQQCKAELNSTTEELHKYQKMLEPPPSAKPFTIDVDKKLEEGQKNIRLLRTELQKLGESLQSAERACCHSTGAGKLRQALTTCDDILIKQDQTLAELQNNMVLVKLDLRKKAACIAEQYHTVLKLQGQVSAKKRLGTNQENQQPNQQPPGKKPFLRNLLPRTPTCQSSTDCSPYARILRSRRSPLLKSGPFGKKY"}}, "target": "GFP-tagged holo-CPC (Chromosomal Passenger Complex: INCENP, GFP-Aurora B, Borealin, Survivin) (human, UniProt Q9NQS7;Q96GD4;Q53HL2;O15392)", "sequence (Q9NQS7 whole entry, chain 1 of 4)": "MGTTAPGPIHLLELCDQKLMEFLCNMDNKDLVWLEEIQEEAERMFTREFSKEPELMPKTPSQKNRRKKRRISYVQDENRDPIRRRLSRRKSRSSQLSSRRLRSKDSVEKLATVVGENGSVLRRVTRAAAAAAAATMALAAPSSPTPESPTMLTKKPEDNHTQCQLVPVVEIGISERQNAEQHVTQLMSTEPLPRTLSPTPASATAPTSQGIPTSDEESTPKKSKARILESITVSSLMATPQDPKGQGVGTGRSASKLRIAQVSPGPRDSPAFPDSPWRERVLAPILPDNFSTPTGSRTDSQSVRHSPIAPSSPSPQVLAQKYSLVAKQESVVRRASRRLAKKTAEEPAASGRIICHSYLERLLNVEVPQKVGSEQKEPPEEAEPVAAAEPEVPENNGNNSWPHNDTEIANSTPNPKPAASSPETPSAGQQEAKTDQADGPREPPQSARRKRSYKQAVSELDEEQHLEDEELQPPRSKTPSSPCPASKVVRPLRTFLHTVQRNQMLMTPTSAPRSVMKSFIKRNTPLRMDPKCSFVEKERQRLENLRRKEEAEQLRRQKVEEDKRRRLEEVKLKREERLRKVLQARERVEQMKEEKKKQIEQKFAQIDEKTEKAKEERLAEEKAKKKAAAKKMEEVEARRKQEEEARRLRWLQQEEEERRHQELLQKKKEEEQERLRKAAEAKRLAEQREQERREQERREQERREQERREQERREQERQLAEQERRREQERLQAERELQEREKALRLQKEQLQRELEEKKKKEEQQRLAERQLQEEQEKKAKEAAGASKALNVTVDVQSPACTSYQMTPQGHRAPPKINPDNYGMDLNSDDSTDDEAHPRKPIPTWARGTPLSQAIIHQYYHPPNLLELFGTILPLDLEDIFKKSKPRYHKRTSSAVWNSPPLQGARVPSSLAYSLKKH", "sequence (Q96GD4 whole entry, chain 2 of 4)": "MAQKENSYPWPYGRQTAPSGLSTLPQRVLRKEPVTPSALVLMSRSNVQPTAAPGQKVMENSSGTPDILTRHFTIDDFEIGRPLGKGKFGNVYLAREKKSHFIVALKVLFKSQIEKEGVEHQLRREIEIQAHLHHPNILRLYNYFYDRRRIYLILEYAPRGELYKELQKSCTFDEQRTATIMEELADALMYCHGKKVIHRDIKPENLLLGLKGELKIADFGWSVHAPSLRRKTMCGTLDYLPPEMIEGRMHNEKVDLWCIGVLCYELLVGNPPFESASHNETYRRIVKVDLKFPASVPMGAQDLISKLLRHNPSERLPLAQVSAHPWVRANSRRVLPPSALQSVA", "sequence (Q53HL2 whole entry, chain 3 of 4)": "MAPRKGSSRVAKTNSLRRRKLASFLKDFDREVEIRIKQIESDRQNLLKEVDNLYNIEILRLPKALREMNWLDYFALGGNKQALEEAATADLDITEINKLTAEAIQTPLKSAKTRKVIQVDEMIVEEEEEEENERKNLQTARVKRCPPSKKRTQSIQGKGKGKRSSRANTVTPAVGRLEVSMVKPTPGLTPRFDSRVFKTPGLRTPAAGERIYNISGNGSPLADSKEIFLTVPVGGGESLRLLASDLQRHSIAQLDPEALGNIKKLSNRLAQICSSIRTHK", "sequence (O15392 whole entry, chain 4 of 4)": "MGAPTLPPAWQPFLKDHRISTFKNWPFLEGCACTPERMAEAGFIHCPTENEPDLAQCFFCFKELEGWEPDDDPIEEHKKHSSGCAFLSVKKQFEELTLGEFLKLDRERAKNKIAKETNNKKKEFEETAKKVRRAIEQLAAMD", "experiment": "pull-down", "data": [{"binder": "B1", "values": [{"measurement": "binding result", "result": "binds"}]}]}
